# Measurements from PMC5078793, “ADAMTS-10 and -6 differentially regulate cell-cell junctions and focal adhesions” (Scientific Reports, 2016).
# T1: ADAMTS6 C-terminal region (human, UniProt Q9UKP5-1 558-1117)
# T1 construct: human ADAMTS6 variant 1, C-terminal region starting at the 1st TSR domain, residues 558-1117; The text calls it monomeric; also called C-terminal ADAMTS6; C-terminal fragment of ADAMTS6; source: 293-EBNA cells (pCEP-pu/AC7), purified (IMAC, 0.5 M NaCl)
# T1 sequence (looked up): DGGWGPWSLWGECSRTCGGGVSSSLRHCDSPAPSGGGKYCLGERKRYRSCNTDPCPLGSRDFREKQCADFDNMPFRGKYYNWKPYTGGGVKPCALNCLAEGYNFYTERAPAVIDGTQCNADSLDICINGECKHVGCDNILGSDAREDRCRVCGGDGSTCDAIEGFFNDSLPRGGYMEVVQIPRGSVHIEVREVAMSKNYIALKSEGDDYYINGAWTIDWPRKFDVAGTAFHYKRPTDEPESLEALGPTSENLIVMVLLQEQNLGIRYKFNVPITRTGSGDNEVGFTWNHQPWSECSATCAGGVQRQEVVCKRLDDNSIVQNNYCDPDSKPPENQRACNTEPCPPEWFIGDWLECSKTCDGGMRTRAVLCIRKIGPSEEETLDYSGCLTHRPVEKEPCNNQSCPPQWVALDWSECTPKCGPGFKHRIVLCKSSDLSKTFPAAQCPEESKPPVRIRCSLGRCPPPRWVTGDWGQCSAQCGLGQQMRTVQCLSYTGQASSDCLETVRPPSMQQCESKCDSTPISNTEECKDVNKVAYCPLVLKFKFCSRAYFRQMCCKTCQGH
# T2: ADAMTS10 C-terminal region (human, UniProt Q9H324 547-1103)
# T2 construct: human ADAMTS10 variant 1, C-terminal region starting at the 1st TSR domain, residues 547-1103; also called C-terminal ADAMTS10; source: 293-EBNA cells (pCEP-pu/AC7), purified (IMAC, 0.5 M NaCl)
# T2 sequence (looked up): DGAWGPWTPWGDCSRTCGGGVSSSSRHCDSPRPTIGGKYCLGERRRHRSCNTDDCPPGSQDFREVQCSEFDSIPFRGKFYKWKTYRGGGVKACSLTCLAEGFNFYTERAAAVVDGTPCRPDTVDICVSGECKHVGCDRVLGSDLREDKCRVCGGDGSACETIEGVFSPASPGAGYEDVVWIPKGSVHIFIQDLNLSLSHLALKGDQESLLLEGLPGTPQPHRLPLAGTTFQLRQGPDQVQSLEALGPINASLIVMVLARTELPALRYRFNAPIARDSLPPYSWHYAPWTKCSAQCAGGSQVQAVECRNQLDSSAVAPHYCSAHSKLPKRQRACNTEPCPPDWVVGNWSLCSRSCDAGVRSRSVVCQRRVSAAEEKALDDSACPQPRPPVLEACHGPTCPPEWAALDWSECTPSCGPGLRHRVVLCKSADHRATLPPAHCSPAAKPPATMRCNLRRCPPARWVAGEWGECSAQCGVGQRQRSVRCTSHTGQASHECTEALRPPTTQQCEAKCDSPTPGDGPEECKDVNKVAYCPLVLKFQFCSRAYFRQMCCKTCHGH
# What was measured:
# [1] = molecular target: T1, ADAMTS6 C-terminal region; test: SPR; Biacore; ADAMTS protein (full-length or C-terminal region) immobilised by amine coupling on CM5 (~3000 RU); analyte injected at 30 ul/min; 10 mM HEPES pH 7.4, 0.1 M NaCl, 0.5 mM CaCl2, 0.005% P20; 1:1 kinetics or equilibrium analysis; details: both partners purified
# [2] = molecular target: the molecule itself; test: SDS-PAGE and western blot (SDS-resistant dimer); purified syndecan-4 ectodomain treated with heparinases I, II, III; anti-syndecan-4 blot; with or without ADAMTS6 overnight at 37 °C
# [3] = molecular target: T1, ADAMTS6 C-terminal region; test: SPR; Biacore; syndecan-4 ectodomain immobilised, ADAMTS C-terminal regions injected; 10 mM HEPES pH 7.4, 0.1 M NaCl, 0.5 mM CaCl2, 0.005% P20; details: both partners purified
# [4] = molecular target: T2, ADAMTS10 C-terminal region; test: as above; details: both partners purified
Kd [1] [nM],Kd [3] [nM],Kd [4] [nM],Binder,binding result [2]
2.4 ± 1.2,–,–,"fibrillin-1 Ex6–11 fragment (domain or fragment, human fibrillin-1, domains encoded by exons 6-11; source: 293-EBNA cells (pCEP-pu/AC7), purified (IMAC, size-exclusion chromatography)) not shown",–
–,12.9 ± 4,14 ± 1.1,"syndecan-4 ectodomain (domain or fragment, human (cloned from ARPE-19A RNA), UniProt P31431 19-143, looked up, the recombinant protein is modified with heparin chains, syndecan-4 ectodomain cloned from RNA of ARPE-19A cells, residues 19-143 (ESI....IFE); Carries heparan sulphate chains in the SPR; also called Syn4 EC; syndecan-4 extracellular domain; source: 293-EBNA cells (pCEP-pu/AC7), purified (IMAC, size-exclusion chromatography)) ESIRETEVIDPQDLLEGRYFSGALPDDEDVVGPGQESDDFELSGSGDLDDLEDSMIGPEVVHPLVPLDNHIPERAGSGSQVPTEPKKLEENEVIPKRISPVEESEDVSNKVSMSSTVQGSNIFER",binds
